This assay concerns the target human hCTLA4-RFP protein on 293 cells (human) (UniProt P16410). The assay is described as follows: flow cytometry of cell conjugates; 293-hCTLA4-RFP cells with 100 nM antibody, then five times as many 293-B7-1-GFP cells (B7-1 is the ligand tested for blocking); lower right quadrant (RFP+GFP-) 6.13.

Chain of human hCTLA4-RFP protein on 293 cells (human) (P16410 36-223): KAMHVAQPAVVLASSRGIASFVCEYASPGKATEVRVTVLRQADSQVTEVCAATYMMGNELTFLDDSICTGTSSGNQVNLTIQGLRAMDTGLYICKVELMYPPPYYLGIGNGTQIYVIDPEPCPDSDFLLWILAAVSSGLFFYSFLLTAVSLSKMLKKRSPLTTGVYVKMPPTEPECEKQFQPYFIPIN

With hIgG1 (antibody), the % RFP+GFP+ events (upper right quadrant) is 26.5%.

Values taken from patent US20220251207A1.
